Test results taken from US20090149339A1 (published 2009).
Like-named read-outs stand apart in the source and are kept apart here. Ends that are not written are not given here. * marks the point of attachment. Biotin = O=C1N[C@H]2[C@H](CS[C@H]2CCCCC(=O)*)N1

Assays:
[1] = biological target: T1, GST-KIAA0559 PDZ domain fusion protein (KIAA0559 AA766-870; PDZ1 of 1) (UniProt P08515 1-218 = GST); assay: A/G assays
T1 construct: also called K559

[2] = biological target: T2, GST-TAX33 PDZ domain fusion protein (tax interaction protein 33 AA73-162; PDZ domain 1 of 1) (UniProt P08515 1-218 = GST); assay: A/G assays
T2 construct: also called TX33

[3] = biological target: GST-DVL1 PDZ domain fusion protein (human dishevelled segment polarity protein homolog AA248-340); PDZ domain … (human, UniProt P08515 1-218 = GST); assay: A/G assays
[4] = biological target: T3, GST-TAX2 PDZ domain fusion protein (human tax interaction protein 2 AA54-140; PDZ domain 1 of 1) (human, UniProt P08515 1-218 = GST); assay: A/G assays
T3 construct: also called TX 2

[5] = biological target: T4, GST-41.8 kD PDZ domain fusion protein (hypothetical 41.8 kD protein AA4-85; PDZ domain 1 of 1) (UniProt P08515 1-218 = GST); assay: A/G assays
T4 construct: also called hypoth

[6] = biological target: GST-PTN-4 PDZ domain fusion protein (protein-tyrosine phosphatase meg1 AA774-862; PDZ domain 1 of 1) (UniProt P08515 1-218 = GST); assay: A/G assays
[7] = biological target: GST-TIAM1 PDZ domain fusion protein (T-lymphoma invasion and metastasis inducing protein 1 AA1001-1088); PDZ 1 … (UniProt P08515 1-218 = GST); assay: A/G assays
[8] = biological target: GST-prIL16 PDZ domain fusion protein (putative interleukin 16 precursor AA170-383; PDZ domains 1-2 of 2) (UniProt P08515 1-218 = GST); assay: A/G assays
[9] = biological target: T5, GST-RGS12 PDZ domain fusion protein (human regulator of G-protein signalling 12 AA35-103; PDZ domain 1 of 1) (human, UniProt P08515 1-218 = GST); assay: A/G assays
T5 construct: also called RSG12

[10] = biological target: GST-MINT3 PDZ domain fusion protein (human MINT3 AA11-52; PDZ domain 1 of 1) (human, UniProt P08515 1-218 = GST); assay: A/G assays
[11] = biological target: T6, GST-KIAA0303 PDZ domain fusion protein (KIAA0303 AA652-742; PDZ domain 1 of 1) (UniProt P08515 1-218 = GST); assay: A/G assays
T6 construct: also called K303

[12] = biological target: GST-AF6 PDZ domain fusion protein (af-6 protein AA985-1077; PDZ domain 1 of 1) (UniProt P08515 1-218 = GST); assay: A/G assays
[13] = biological target: T7, GST-MPP2 PDZ domain fusion protein (maguk p55 subfamily member 2 (DLG2) AA185-273; PDZ domain 1 of 1) (UniProt P08515 1-218 = GST); assay: A/G assays
T7 construct: also called MMP2

[14] = biological target: T8, GST-KIAA0316 PDZ domain fusion protein (KIAA0316 AA197-284; PDZ domain 1 of 1) (UniProt P08515 1-218 = GST); assay: A/G assays
T8 construct: also called K316

[15] = biological target: T9, GST-TAX40 PDZ domain fusion protein (human tax interaction protein 40 AA35-137; PDZ domain 1 of 1) (human, UniProt P08515 1-218 = GST); assay: A/G assays
T9 construct: also called TX 40

[16] = biological target: T10, GST-TAX43 PDZ domain fusion protein (human tax interaction protein 43 AA15-85; PDZ domain 1 of 1) (human, UniProt P08515 1-218 = GST); assay: A/G assays
T10 construct: also called TX 43

[17] = biological target: T11, GST-CBP PDZ domain fusion protein (Cytohesin binding protein HE AA85-175; PDZ domain 1 of 1) (UniProt P08515 1-218 = GST); assay: A/G assays
T11 construct: also called Prot

[18] = biological target: GST-LIMK2 PDZ domain fusion protein (human LIM domain kinase 2 AA185-275; PDZ domain 1 of 1) (human, UniProt P08515 1-218 = GST); assay: A/G assays
[19] = biological target: T12, GST-CASK PDZ domain fusion protein (CASK AA495-584; PDZ domain 1 of 1) (mouse, UniProt P08515 1-218 = GST); assay: A/G assays
T12 construct: also called mCASK

[20] = biological target: GST-LIM PDZ domain fusion protein (Human LIM protein AA29-112; PDZ domain 1 of 1) (human, UniProt P08515 1-218 = GST); assay: A/G assays
[21] = biological target: GST-NOS1 PDZ domain fusion protein (human neuronal nitric oxide synthase; PDZ domain 1 of 1) (human, UniProt P08515 1-218 = GST); assay: A/G assays
[22] = biological target: GST-MPP1 PDZ domain fusion protein (55 Kd erythrocyte membrane protein AA101-186; PDZ domain 1 of 1) (UniProt P08515 1-218 = GST); assay: A/G assays
[23] = biological target: T13, GST-NeDLG PDZ domain fusion protein (presynaptic protein sao102, neuroendocrine-dlg; PDZ domains 1-2 of 3) (UniProt P08515 1-218 = GST); assay: G assay
T13 construct: also called NeDLG1

[24] = biological target: T14, GST-SYN1a PDZ domain fusion protein (alpha1-syntrophin AA96-189; PDZ domain 1 of 1) (UniProt P08515 1-218 = GST); assay: G assay
T14 construct: also called SYN 1 alpha; SYNTR 1 alpha

[25] = biological target: T15, GST-PSD95 PDZ domain fusion protein (human post-synaptic density protein 95 AA387-724; PDZ domains 1-3 of 3) (human, UniProt P08515 1-218 = GST); assay: A and G assays
[26] = biological target: T4, GST-41.8 kD PDZ domain fusion protein …; assay: A/G assays; remark: listed apart in the source
[27] = biological target: T15, GST-PSD95 PDZ domain fusion protein …; assay: A/G assays
[28] = biological target: T13, GST-NeDLG PDZ domain fusion protein …; assay: A/G assays
[29] = biological target: T14, GST-SYN1a PDZ domain fusion protein …; assay: A/G assays

Measured: binding result

Sequence of GST-NOS1 PDZ domain fusion protein (human neuronal nitric oxide synthase; PDZ domain 1 of 1) (P08515 1-218, tags or fused parts left off): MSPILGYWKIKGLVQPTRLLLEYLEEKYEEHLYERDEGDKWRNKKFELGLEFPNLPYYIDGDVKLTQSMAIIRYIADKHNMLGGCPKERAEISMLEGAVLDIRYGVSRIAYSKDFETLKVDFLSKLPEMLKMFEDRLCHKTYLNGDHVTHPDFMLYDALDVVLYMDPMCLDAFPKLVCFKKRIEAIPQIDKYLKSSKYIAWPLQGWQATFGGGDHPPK
Sequence of GST-MPP1 PDZ domain fusion protein (55 Kd erythrocyte membrane protein AA101-186; PDZ domain 1 of 1) (P08515 1-218, tags or fused parts left off): as above
Sequence of GST-LIM PDZ domain fusion protein (Human LIM protein AA29-112; PDZ domain 1 of 1) (P08515 1-218, tags or fused parts left off): as above
Sequence of GST-MINT3 PDZ domain fusion protein (human MINT3 AA11-52; PDZ domain 1 of 1) (P08515 1-218, tags or fused parts left off): as above
T11 sequence (P08515 1-218, tags or fused parts left off): as above
T1 sequence (P08515 1-218, tags or fused parts left off): as above
T13 sequence (P08515 1-218, tags or fused parts left off): as above
T10 sequence (P08515 1-218, tags or fused parts left off): as above
T9 sequence (P08515 1-218, tags or fused parts left off): as above
T7 sequence (P08515 1-218, tags or fused parts left off): as above
Sequence of GST-LIMK2 PDZ domain fusion protein (human LIM domain kinase 2 AA185-275; PDZ domain 1 of 1) (P08515 1-218, tags or fused parts left off): as above
T15 sequence (P08515 1-218, tags or fused parts left off): as above
T8 sequence (P08515 1-218, tags or fused parts left off): as above
Sequence of GST-prIL16 PDZ domain fusion protein (putative interleukin 16 precursor AA170-383; PDZ domains 1-2 of 2) (P08515 1-218, tags or fused parts left off): as above
Sequence of GST-DVL1 PDZ domain fusion protein (human dishevelled segment polarity protein homolog AA248-340); PDZ domain … (P08515 1-218, tags or fused parts left off): as above
T5 sequence (P08515 1-218, tags or fused parts left off): as above
T2 sequence (P08515 1-218, tags or fused parts left off): as above
Sequence of GST-TIAM1 PDZ domain fusion protein (T-lymphoma invasion and metastasis inducing protein 1 AA1001-1088); PDZ 1 … (P08515 1-218, tags or fused parts left off): as above
Sequence of GST-PTN-4 PDZ domain fusion protein (protein-tyrosine phosphatase meg1 AA774-862; PDZ domain 1 of 1) (P08515 1-218, tags or fused parts left off): as above
T6 sequence (P08515 1-218, tags or fused parts left off): as above
T12 sequence (P08515 1-218, tags or fused parts left off): as above

Biotin-LASKSAEEGKQIPDSLSTDL [DOCK2 C-terminal PL peptide AA40L, biotinylated]
binds: [23] | [24] | [25]
not listed: [26] | [27] | [28] | [29]
no binding: all other assays above

Biotin-ENLAPVTTFGKTNGYIA [CD148 (DEP-1) C-terminal PL peptide AA19L (ends GYIA), biotinylated]
not listed: [5] | [23] | [24] | [25]
no binding: all other assays above

Biotin-DLGNMEENKKLEENNHKTEA [CD166 (CD6L) C-terminal PL peptide AA20L, biotinylated]
not listed: [5] | [23] | [24] | [25]
no binding: all other assays above
